The values that follow come from patent US20210340245A1 (Janssen / Centocor, published 2021).

In assay [1] the target is T1, recombinant human TNFα (human, UniProt P01375 77-233, 125I label in the receptor-blocking assay). Briefly: cell-based or functional assay.
Assay [2] deals with T1, recombinant human TNFα. Briefly: inhibition of 125I-TNFα binding to plate-coated p55-sf2. As to the method: 50:1 of p55-sf2 at 0.5 :g/ml in PBS was added to Optiplates to coat the wells during a one-hour incubation at 37° C. Serial dilutions of the eight TNV cell supernatants were prepared in 96-well round-bottom plates using PBS/0.1% BSA as diluent. […] The mixture was preincubated for one hour at RT. […] After 2 hrs at RT, Optiplates were washed three times with PBS-Tween. 100 :l of Microscint-20 was added and the cpm bound determined using the TopCount gamma counter.
The concentrations of the TNV mAbs in their respective cell supernatants were first determined by standard ELISA analysis for human IgG.

In assay [3] the target is T1, recombinant human TNFα. Briefly: competition radioligand assay: hybridoma supernatant preincubated with 125I-TNFα (5 ng/ml); binding of TNFα to plate-coated p55-sf2 read as cpm bound.

B1: GenTNV148.26.12 (antibody, V domains shown)
VH: QVQLVESGGGVVQPGRSLRLSCAASGFIFSSYAMHWVRQAPGNGLEWVAFMSYDGSNKKYADSVKGRFTISRDNPKNTLYLQMNSLRAEDTAVYYCARDRGIAAGGNYYYYGMDVWGQGTTVTVSS
VL: EIVLTQSPATLSLSPGERATLSCRASQSVYSYLAWYQQKPGQAPRLLIYDASNRATGIPARFSGSGSGTDFTLTISSLEPEDFAVYYCQQRSNWPPFTFGPGTKVDIKR
B1: the “neutralizing TNFα bioactivity” value with recombinant human TNFα [1] was found to be 4 fold. Moreover, in the assay with recombinant human TNFα [2], the “fold better at blocking TNF binding than TNV118 and TNV14” value is roughly 4 fold. For the same molecule, the “IC50 (read off the curve)” value with recombinant human TNFα [3] was roughly 4 ng/mL.

B2: GenTNV86.14.34 (antibody, human IgG1, V domains shown)
VH: QVQLVESGGGVVQPGRSLRLSCAASGFIFSSYAMHWVRQAPGNGLEWVAFMSYDGSNKKYADSVKGRFTISRDNPKNTLYLQMNSLRAEDTAVYYCARDRGIAAGGNYYYYGMDVWGQGTTVTVSS
VL: EIVLTQSPATLSLSPGERATLSCRASQSVYSYLAWYQQKPGQAPRLLIYDASNRATGIPARFSGSGSGTDFTLTISSLEPEDFAVYYCQQRSNWPPFTFGPGTKVDIK
notes: Totally human IgG1 kappa, hybridoma-derived, tested in cell supernatant; Variable regions identical to TNV148; also called C417A (cell line code)
For the molecule B2, the “fold better at blocking TNF binding than TNV118 and TNV14” value in the assay with recombinant human TNFα [2] was roughly 4 fold.
